PMC2877510 (Journal of biomolecular NMR, 2010)

How the values were obtained:
[1] = molecular target: ubiquitin (from bovine erythrocytes) (bovine, UniProt P0CG53 1-76); experiment: NMR titration
[2] = molecular target: carboxyl terminal domain of rat Cx43 (Cx43CT; residues S255-I382) (rat, UniProt P08050 255-382); experiment: NMR titration
Chain of carboxyl terminal domain of rat Cx43 (Cx43CT; residues S255-I382) (P08050 255-382): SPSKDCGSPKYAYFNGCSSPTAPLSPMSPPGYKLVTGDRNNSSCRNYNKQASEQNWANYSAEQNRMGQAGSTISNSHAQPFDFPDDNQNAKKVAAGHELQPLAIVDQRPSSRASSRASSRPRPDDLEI

- binding result [1]: binds
- binding result [2]: binds
Binder: MPEVRFQQQLEQLNSMGFINREANLQALIATGGDINAAIERLLGSQLS (domain or fragment, mouse, UniProt Q99NB8 549-596, looked up) [UBA domain of CIP75 (connexin43-interacting protein of approximately 75 kDa), residues M549-S596]
